Results as given in the nanobody polyreactivity screen of Harvey et al. (2022).

experiment: yeast display, Sf9 membrane polyspecificity reagent, FACS + sequencing; frameworks hold sequencing errors
Summary of the method: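 Genes from sorted yeast were amplified by colony PCR, read by MiSeq 2 × 250 sequencing and filtered on CDR length. These cells carried a synthetic nanobody library in Saccharomyces cerevisiae BJ5465 and were sorted by FACS into low and high (top ~1%) gates on anti-HA and streptavidin fluorescence. Polyreactivity is labelled according to the gate of origin.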

Sequence	polyreactivity (PSR sort gate)
QVQHVESGGGLVQAGGSLRLSCAASGSTFGYNPMGSYRQAPGKERELTNYADSVKGRFTISRDNAKNTVYLQMNSLKPEDTAVYYCNAQIDFGDPEKRAWGYDYWGQGTQVTVSS	low polyreactivity
QVQLVESGGGLVQAGGSLRLSCAASGFIFHLYGMAWYRQAPGKERELVAAISSGGRAYYADSVKGRFTISRDNAKNTVYLQMNSLKPEDTAVYDCAVYVAYLYSYYYWGQGTQVTVSS	low polyreactivity
QVQLVESGGGLVQAGGSLRLSCAASGSTFVPNAMGWYRQAPGKERELVAAISSVGSTNYADSVKGRFTISRDNAKNTVYLQMNSLKPEDTAVYYCAVRYPWRYFKYGYWGQGTQVTVSS	low polyreactivity
QVQLVESGGGLVQAGGSLRLICAASGSTFYDNTMGWYRQAPGKERELVAAISSGGGTYYADSVKGRFTISRDNAKNTVYLQMNSLKPEDTSVYYCNADQTAYGKPGRAYGFDYWGQGTQVTVSS	low polyreactivity
QVQLVESGGGLVQAGGSLRLSCAASGRIFAYNTMGWYRQAPGKERELVAVITSGGSTNYADSVKGRFTISRDNAKNTVYLQMNSLKPEDTAVYYCNADPRLRQTRDYWGQGTQVTVSS	high polyreactivity
QVQLVESGGGLVQAGGSLRLSCAASGRTFTYNAMGWYRQAPGKERELVASITWSGGRTYYADSVKGRFTISRDNAKNTVYLQMNSLKPEDTAVYYCAAYRWWGYITGVRGAKSIFDYWGQGTQVTVSS	high polyreactivity
QVQLVESAGGLVQEGGSLRLSCAASGLTFYGNAMGWYRQAPGKERELVAAISSSGGTTSYADSVKGRFTISRDNAKNTVYLQFNSLKPEDTAVYYCAARPSGGYESTRTRDYWGQGTQVTVSS	low polyreactivity
QVQLVESGGGLVQAGGSLRLSCAASGSIIGYYAMGWYRQAPGKERELVAAITASGGSTYYADSVKGRFTISRDNAKNTVYLQMNSLKPEDTAVYYCAAGTHTDYGRYYYWGQGTQVTVSS	low polyreactivity
QVQLVESGGGLVQAGGSLRLSCAASGFIFGRNVMGWYRQAPGKERELVASISRSGGRTTYADSVKGRFTISRDNAKNTVYLLMNSLKPEDTAVYYCAKGQYQWERYVSHADYDWGQVTQVTVSS	high polyreactivity
QVQLVESGGGLVQAGGSLRLSCAASGRIFDIYGMGWYRQAPGKERELVAAITSGGSTYYADSVKGRFTISRDNAKNTVYLQMNSLKPEDTAVYYCAADSVLLKDTGYDYWGQGTQVTVSS	low polyreactivity
QVKRVESGGGLVQAGGSLRLSCAASGIIFTYYAMGWYRQAPGKERELVAAISWTGGRTYFADSVKGRFTISRDNAKNTVYLQMNSLKREDTAVYYCAAKQYTRFGYYYWGQGTQVTVSS	high polyreactivity
QVQLVESGGGLVQAGGSLRLSCAASGGIFSYYAMGWYRQAPGKERELVAAITGSGATTYYADSVKGRFTISRDNAKNTVYLQMNSLKPEDTAVYYCAADYWTAFYTLDSWGQGTQVTVSS	low polyreactivity
QVQLVESGGGLVQAGGSLRLSCAASGRTFGYNTMGWYRQAPGKERELVATIRTNGVSTYYADSVKGRFTISRDNAKNTVYLQMNSLKPEDTAVYYCNAPRTRKQKTIYVNAPGNYWGQGTQVTVSS	low polyreactivity
QVQLVESGGGLVQAGGSLRLSCAASGFTLAFYGMGWYRQAPGKERELVAAISRSGGSTYYADSVKGRFTISRDNAKNTVYLQMNSLKPEDTAVYYCAAAFRAGAVYGYYWGQGTQVTVSS	high polyreactivity
QVQLVESGAGLVQAGGSLRLSCAASGSIFYPYAMGWYRQAPGKERELVAAITYSGGSTYADSVKGRFTISRDNAKNTVYLQMNSLKPEDTAVYYCAARYIIHVGSWYDYWGQGTQVTVSS	high polyreactivity
QVQNEESGGGLVQAGGSLRLSCAASGRNFSSYAMGWYRQAPGKERELVAAISRAGGTYYADSVKGRFTISRDNAKNTVYLQMNSMKPEDTAVYYCAARQSVYGLRSDFYYWGQGTQVTVSS	high polyreactivity
QVQLVESGGGLVEAGGSLRLSCAASGRTFFKYTMGWYRQAPGKERELVSAITGSGASTYYADSVKGRFTISRDNAKNTVYLQMNSLKPEDTAVYYCAAVLTVKKGDKYGYWGQGTQVTVSS	high polyreactivity
QVQLVESGGGLVQAGGSLRLSCAASGYIFPYNVMGWSRQAPGKERELVAAITWRVVRTYYADSVKGRFTISRDNAKNTVYLQMNSLKPEDTAVYYCAALSRQSGDYWGQGTQVTVSS	high polyreactivity
QVHLVESGGGLVQAGGSLRLSCAASGRIFHYYMVWYTQAPGKERELVAVISSGDGTYYADSVKRRFTISRDNAKNTVYLQMNSLKPEDTAVYYCAADAPREYVDHYKYDDDYWGQGTQETVSS	low polyreactivity
QVQIVESGGGLVQAGGSLRLSCAASGSIFIFYAMGWYRQAPGKERELVADITSDGASTYYADSVKGRFTISRDNAKNTVYLQMNSLKPEDTAVYYCAADYIDSSAYDYWGQGTQVTVSS	low polyreactivity
QVQLVESGGGLVQAGGSLRLSCAASGSIFNLNAMGWYRQAPGKEREFVAGITYSAGRTYYADSVKGRFTISRDNAKNTVYLQMNSLKPEDTAVYYCAARIYSKFTSYGILDSWGQGTQVTVSS	high polyreactivity

Sequence	polyreactivity (PSR sort gate)
QVQLVESGGGLVQAGGCLRLSCADSGGTFGPYAMGWYIQAPGKEREFVARITGSGTRTYYADSVKGRFTISGDNAKNNVYLQMNSLNPEDTAVYYCATSHSRGSRGHDYWGQGTQVTVSS	low polyreactivity
QVQLVESGGGLVQAGGSLRLSCAASGSTFLSYVMGWYRQAPGKERELVAAITGTGGRTYYADSVKGRFTISRDNAKNTVYLQMNSLKPEDSAVYYCTAYRKHGYDYWGQGTQVTVSS	high polyreactivity
QVQLVESGGGLFQAGGSLRLSCAASGSIFRYNTMGWYRHAPGKESELVARISSGGSTYYADSVKGRFTISRDNAKNTVYLQMNSLKPEDTAVYYCAAVSRHRGWDRYYWGQGTQVTVSS	high polyreactivity
QVQLVESGGGLVQAGGSLRLSCAASGRNFEVYTMGWYRQAPGTERELVDAIDRSTGSTYYADSVKGRFTISRDNAKNTVYLQMNSLKPEDTAVYDCAARGTFLGTRPLGRFDYWGQGTQVTVSS	low polyreactivity
QVQRVESGGGLVQAGGSLRLSSPASGRMGWYRQAPGKERELVAAITSGDRTNYADSVKGRFTISRDNAKNTVYLQMNSLKPEDTAVYYCATERSWYHGFIDPRGYWGQGTQVTVSS	low polyreactivity
QVQLVESGGGLVQAGGSLRLSCAASGSIFYRNVMGWYRQAPGKERELVAVITGSGDSTFYADSVKGRFTISRDNAKNTVYLQMNSLKPEDTAVYYCNARQVSGGYYYWGQGTQVTVSW	low polyreactivity
QVQLVESGGGLVQAGGSLRLSCAASGRIFKFNAMGWYREAPGKERELVAAITTGGGSTYYADSVKGRFTISRDNAKNTVYLQMNSLKPEDTAVYYCATDRRHEYSSRRYYYWGQGTQVTVSS	high polyreactivity
QVQLVESGGGLVQAGGSLRLSCAASGFIFGDYAMGWYRQAPGKERELVAAISRSGGRTYYADSVKGRFTISRDNAKNTVYLQMNSLKPEDTAVYYCAKSSLNIYEYWGQGTQVTVSS	high polyreactivity
QVQLVESGGGLVQAGGSLRLSCAASGFIFADNPMGWYRQAPGKERELVAGITSGGITNYADSVKGRFTISRDNAKNTVYLQMNSLKPEDTAVYYCAVYYRRWFSRYDYWGQGTQVTVSS	low polyreactivity
QVQLVESGGGLVQAGGSLRLSCAASGSIFGYYAMGWYRKAPGKERELVAAISWSDGSTYYADSVKGRFTISRDNAKNTVYLQMNSLNPEDTAVYYCAARFTPYITSDDGHYDYWGQGTQVTVSS	low polyreactivity
QVQLVESGGGLVQAGGSLRLSCAASGFTIYNNAMGWYRQAPGKERELVAGITSGGDSTNYADSVKGRFTISRDNAKNTVYLQMNRLKPEDTAVYYCAAEGGTNTPGVVESDYWGQGTQVTVSS	low polyreactivity
QDQLVESGGGLVQAGGSLRLSRAASGLIFYSYAMGWYRQAPGKERELVAAISSGGGRTYYADSVKGRFTISRDNAKNTVDLQMNSLKPEDTAVYYCAAYGSAAQKYPYDRPYRYGYWGQGTQVTVSS	high polyreactivity
QVQLVESGGGLVQAGGSLRLSCAASGSIFDYNAMGWYRQAPGKERELVAGITFIGGSTYYADSVKGRFTISRDNAKNTVYLQMNSLKPEDTAVYYCNADVAPGIFYGYESWGQGTQVSVSS	low polyreactivity
QVQLVESGGGLVQAGGSLRLSCASSGSTFTGNAMGWYRQAPGKERELVAAISYRGVSTSYADSVKGRFTISRDNAKNTVYLQMNSLKPEDTAVYYCAKRRSLVRSIPFDSWGQGTQVTVSS	low polyreactivity
QVQLVESGGGLVQAGGSLRLSCAASGFTFSRYTMGWYRQAPGKERELVAAISFSGVRTYYADSVKGRFTISRDNAKNSVYLQMNSLKPEDTAVYYCNRVSRTRGLNLYDYWGQGTQVTVSS	high polyreactivity
QVQLVESGGGLVQAGGSLRLSCDASGSTFFTYAMGWYRQSPGKERELVAAITRGGSTYYADSVKGRFTISRDNAKHTVYLQMNSLKPEDTAVYYCNVDPFTRQNHGNYWGQGTQVTVSS	high polyreactivity
QVQLVESGGGLVQAGGSLRISCAASGSISSDNVMGWYRQAPGKERELVAAISSGTSTHYADSVKGSFTISRDNAKNTVYLQMNSLNQEDTAVYYCAAYFYRQYLYFLYEYDYWGQGTQVTVSS	low polyreactivity
QVQLVEAGGGLVQAGGSLRLSCAASGSIFVGNAMGWYRQAPGKERELVAAISSSGGRKFYADSVKGRFTISRDNAKNTVYLQMISLKPEDTAVYYCAAVYTHWQQRMDYWGQGTQVTVSS	high polyreactivity
QVQLVESGVGLVQAGGSLRLSCAASGFIFCGYAMVWYRHAPGKERELVAAISWSGDNTYYADSVKGRFTISRDNAKNTVYFQMNSLKPEDTAVYYCAADSYGQEYDYWGQGTQVSVSS	low polyreactivity
QVQLVESGGGLVQAGGSLRLSCAASGFTFDSYAMGWYRQAPGKERELVAAITWDGGSTYYADSVKGRFTISRDNAKNTVYLPMNSLKPEDTAVYYCAAVSGFYDQYDYWGQGTQVTVSS	low polyreactivity
